# Results reported in patent publication US20200405889A1.
# Where no end group is shown, it is not given here. [ ]: non-standard residue; d: D form. The star is where a group is joined. maleimido‑mono‑amide‑DOTA = O=C(O)CN1CCN(CC(=O)O)CCN(CC(=O)NCCN2C(=O)CC(*)C2=O)CCN(CC(=O)O)CC1
# Legend:
# [1] = target: mouse chemokine (C-C motif) receptor 2 (CCR2) (mouse) (UniProt P51683); experiment: cell-based or functional assay
# [2] = target: human CCR2 (hCCR2) (human) (UniProt P41597); experiment: autoradiography of ^64Cu-DOTA-ECL1i on human COPD lung tissue sections, co-incubation with 500-fold non-radioactive ECL1i
# Sequence of human CCR2 (hCCR2) (human) (P41597 whole entry): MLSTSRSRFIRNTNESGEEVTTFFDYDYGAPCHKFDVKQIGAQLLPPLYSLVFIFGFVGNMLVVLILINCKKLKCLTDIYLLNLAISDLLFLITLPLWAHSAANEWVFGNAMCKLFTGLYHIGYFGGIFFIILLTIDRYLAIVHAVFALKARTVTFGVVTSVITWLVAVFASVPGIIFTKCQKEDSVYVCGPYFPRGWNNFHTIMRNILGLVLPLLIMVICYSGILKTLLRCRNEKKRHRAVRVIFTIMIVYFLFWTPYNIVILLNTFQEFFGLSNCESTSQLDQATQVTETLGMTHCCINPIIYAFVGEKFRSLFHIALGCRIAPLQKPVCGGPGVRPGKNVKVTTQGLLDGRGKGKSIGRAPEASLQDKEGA
# Sequence of mouse chemokine (C-C motif) receptor 2 (CCR2) (mouse) (P51683 whole entry): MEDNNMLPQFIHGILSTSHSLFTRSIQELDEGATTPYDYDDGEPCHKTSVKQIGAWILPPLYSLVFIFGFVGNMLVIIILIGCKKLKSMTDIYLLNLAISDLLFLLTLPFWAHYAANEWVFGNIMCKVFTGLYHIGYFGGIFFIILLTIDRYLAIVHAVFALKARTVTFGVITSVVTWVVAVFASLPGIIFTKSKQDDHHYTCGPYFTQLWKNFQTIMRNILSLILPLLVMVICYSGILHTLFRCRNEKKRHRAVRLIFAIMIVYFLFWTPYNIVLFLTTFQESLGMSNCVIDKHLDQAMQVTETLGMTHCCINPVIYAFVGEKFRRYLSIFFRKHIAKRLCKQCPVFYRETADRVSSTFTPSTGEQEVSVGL
"graft/native lung uptake ratio, PET 1 hour after transplantation, wild type B6 lung into wild type B6 recipient [1]","graft/native lung uptake ratio, PET at 1 hour with co-injected non-radiolabeled ECL1i [1]","graft/native lung uptake ratio, PET at 4 hours, wild type into wild type [1]","graft/native lung uptake ratio, PET at 24 hours, wild type into wild type [1]",lung PET uptake 24 h after intratracheal LPS [1],lung PET uptake 24 h after intratracheal PBS [1],lung PET uptake 48 h post-LPS [1],lung PET uptake 144 h post-LPS [1],lung PET uptake after low dose LPS [1],lung PET uptake in LPS-treated mice co-injected with excess non-radioactive ECL1i (blocked) [1],lung PET uptake in naive mice [1],"percent of PET signal in grafts blocked by competitive receptor blocking, wild type recipients [1]",percent of autoradiography signal blocked [2],Binder
3.71,1.17,4.13,3.73,4.43 % ID/g,0.99 % ID/g,1.04 % ID/g,1.29 % ID/g,1.82 % ID/g,0.63 % ID/g,0.39 % ID/g,75%,,[dL]G[dT][dF][dL][dK][dC](maleimido‑mono‑amide‑DOTA) (also: DOTA chelates 64Cu) [^64Cu-DOTA-ECL1i]
,,,,,,,,,,,,54.5%,[dL]G[dT][dF][dL][dK][dC] [ECL1i peptide d(LGTFLKC)]
